The values that follow come from article PMC3532415.

Test [1] has as its target histone H3 1–15 K9me3 peptide (UniProt P68431). Briefly: fluorescence polarisation; fluorescence-labelled peptide constant at 40 nM, SUV39H1 (42–100 or 44–106) titrated from low to high micromolar; 20 mM Tris-HCl pH 8.5 or 7.5, 150 mM NaCl, 1 mM DTT, 0.01% Tween-X-100; 10 µL in 384-well plates; fit to a hyperbolic function.
Test [2] concerns the target histone H3 1–15 K9me2 peptide (UniProt P68431). The test is described as above.

In general, Kd refers to the equilibrium constant for the complex coming apart. Low values mean a tighter complex, high ones a looser complex. Consider “human SUV39H1 chromodomain (aa 42–100), complete chromodomain (from UniProt O43463 42-100) (domain or fragment)”, for which the Kd in test [1] amounted to 20 µM; in test [2], 29 µM.
